B1: CPEB3 Ribozyme (parent)
chain: UAACAGGGGGCCACAGCAGAAGCGUUCACGUCGCAGCCCCUGUCAGAUUCUGGUGAAUCUGCGAAUUCUGCUGUAUAUCUC

Variants of: B1
Assay: self-cleavage, relative activity (ratio to wild type); higher = more cleavage; in vitro, sequencing
Procedure, shortened: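 Relative activity compares each variant's cleaved/total read fraction with that of the unmutated ribozyme. To get these fractions, barcoded CPEB3 ribozyme libraries from rounds of error-prone PCR were transcribed with T7 RNA polymerase for 5 hours at 37°C and then given 15 min of DNase I treatment before EDTA was added. The RNAs were reverse transcribed with template switching and sequenced on Illumina, and DNA sequencing linked barcodes to variants. A minimum of 5 reads applied, and three batches were averaged.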

Variant | self-cleavage
UAACAGGGGGCCACAGCAGAAGCGUUCACGUCGCAGCCCCAGUCAGAUUCUGGUUAAUCUGCGAAUUCUGCUGUAUAUCUC | 0.2
UAACAGGGGGCCACAGCAGAAGCGUUCACGUCGCAGCCCCAGUCAGAUUCUGGUCAAUCUGCGAAUUCUGCUGUAUAUCUC | 0.34
UAACAGGGGGCCACAGCAGAAGCGUUCACGUCGCAGCCCCAGUCAGAUUCUGGUAAAUCUGCGAAUUCUGCUGUAUAUCUC | 0.19
UAACAGGGGGCCACAGCAGAAGCGUUCACGUCGCAGCCCUUGUCAGAUUCUGGUGAAUCUGCGAAUUCUGCUGUACAUCUC | 0.92
UAACAGGGGGCCACAGCAGAAGCGUUCACGUCGCAGCCCCAGUCAGAUUCUGGUGAAUCUGCGAAUUCUGCUAUAUAUCUC | 0.45
UAACAGGGGGCCACAGCAGAAGCGUUCACGUCGCAGCCCCAGUCAGAUUCUGGUGAAUCUGCGAAUUCUGCUCUAUAUCUC | 0.17
UAACAGGGGGCCACAGCAGAAGCGUUCACGUCGCAGCCCCAGUCAGAUUCUGGUGAAUCUGCGUAUUCUGCUGUAUAUCUC | 0.29
UAACAGGGGGCCACAGCAGAAGCGUUCACGUCGCAGCCCCAGUCAGAUUCUGGUGAAUCUGCGCAUUCUGCUGUAUAUCUC | 0.15
UAACAGGGGGCCACAGCAGAAGCGUUCACGUCGCAGCCCCAGUCAGAUUCUGGUGAAUCUGCGGAUUCUGCUGUAUAUCUC | 0.28
UAACAGGGGGCCACAGCAGAAGCGUUCACGUCGCAGCCCCAGUCAGAUUCUGGUGAUUCUGCGAAUUCUGCUGUAUAUCUC | 0.13
UAACAGGGGGCCACAGCAGAAGCGUUCACGUCGCAGCCCCAGUCAGAUUCUGGUGAGUCUGCGAAUUCUGCUGUAUAUCUC | 0.25
UAACAGGGGGCCACAGCAGAAGCGUUCACGUCGCAGCCCCAGUCAGAUUCUGGUGACUCUGCGAAUUCUGCUGUAUAUCUC | 0.4
UAACAGGGGGCCACAGCAGAAGCGUUCACGUCGCAGCCCUUGUCAGAUUCUGGUGAAUCUGCGAAUUCUGCUGCAUAUCUC | 1.08
UAACAGGGGGCCACAGCAGAAGCGUUCACGUCGCAGCCCUUGUCAGAUUCUGGUGAAUCUGCGAAUUCUGCUGGAUAUCUC | 1.04
UAACAGGGGGCCACAGCAGAAGCGUUCACGUCGCAGCCCCAGUCAGAUUCUGGUGUAUCUGCGAAUUCUGCUGUAUAUCUC | 0.29
UAACAGGGGGCCACAGCAGAAGCGUUCACGUCGCAGCCCCAGUCAGAUUCUGGUGGAUCUGCGAAUUCUGCUGUAUAUCUC | 0.24
UAACAGGGGGCCACAGCAGAAGCGUUCACGUCGCAGCCCCAGUCAGAUUCUGGUGAAUCUGCGAAUUCUUCUGUAUAUCUC | 0.12
UAACAGGGGGCCACAGCAGAAGCGUUCACGUCGCAGCCCCAGUCAGAUUCUGGUGAAUCUGCGAAUUAUGCUGUAUAUCUC | 0.17
UAACAGGGGGCCACAGCAGAAGCGUUCACGUCGCAGCCCCAGUCAGAUUCUGGUGAAUCUGCGAUUUCUGCUGUAUAUCUC | 0.17
UAACAGGGGGCCACAGCAGAAGCGUUCACGUCGCAGCCCCAGUCAGAUUCUGGUGAAUCUGCGAGUUCUGCUGUAUAUCUC | 0.25
UAACAGGGGGCCACAGCAGAAGCGUUCACGUCGCAGCCCCAAUCAGAUUCUGGUGAAUCUGCGAAUUCUGCUGUAUAUCUC | 0.37
UAACAGGGGGCCACAGCAGAAGCGUUCACGUCGCAGCCCCAUUCAGAUUCUGGUGAAUCUGCGAAUUCUGCUGUAUAUCUC | 0.27
UAACAGGGGGCCACAGCAGAAGCGUUCACGUCGCAGCCCCACUCAGAUUCUGGUGAAUCUGCGAAUUCUGCUGUAUAUCUC | 0.21

Variant | self-cleavage
UAACAGGGGGCCACAGCAGAAGCGUUCACGUCGCAGCCCCAGUCAGAUUCUGGUGAAUCUGCGAAUUCUGCUGUAUAUAUC | 0.32
UAACAGGGGGCCACAGCAGAAGCGUUCACGUCGCAGCCCCAGUCAGAUUCUGGUGAAUCUGCGAAUUCUGCUGUAUAUGUC | 0.37
UAACAGGGGGCCACAGCAGAAGCGUUCACGUCGCAGCCCCAGUCAGAUUCUGGUGAAUCUGCGAAUUCUGCUGUAUAUUUC | 0.41
UAACAGGGGGCCACAGCAGAAGCGUUCACGUCGCAGCCCCAGUCAGAUUCUGGUGAAUCUGCGAAUUCUGUUGUAUAUCUC | 0.24
UAACAGGGGGCCACAGCAGAAGCGUUCACGUCGCAGCCCCAGUCAGAUUCUGGUGAAUCUGCGAAUUCUGGUGUAUAUCUC | 0.1
UAACAGGGGGCCACAGCAGAAGCGUUCACGUCGCAGCCCUUGUCAGAUUCUGGUGAAUCUGCGAAUUCUGCUGUAUAUCCC | 0.76
UAACAGGGGGCCACAGCAGAAGCGUUCACGUCGCAGCCCUUGUCAGAUUCUGGUGAAUCUGCGAAUUCUGCUGUAUAUCAC | 0.67
UAACAGGGGGCCACAGCAGAAGCGUUCACGUCGCAGCCCCAGUCAGCUUCUGGUGAAUCUGCGAAUUCUGCUGUAUAUCUC | 0.18
UAACAGGGGGCCACAGCAGAAGCGUUCACGUCGCAGCCCCAGUCAGGUUCUGGUGAAUCUGCGAAUUCUGCUGUAUAUCUC | 0.29
UAACAGGGGGCCACAGCAGAAGCGUUCACGUCGCAGCCCCAGUCAGUUUCUGGUGAAUCUGCGAAUUCUGCUGUAUAUCUC | 0.3
UAACAGGGGGCCACAGCAGAAGCGUUCACGUCGCAGCCCUUGUCAGAUUCUGGUGAAUCUGCGAAUUCUGCCGUAUAUCUC | 0.9
UAACAGGGGGCCACAGCAGAAGCGUUCACGUCGCAGCCCUUGUCAGAUUCUGGUGAAUCUGCGAAUUCUGCAGUAUAUCUC | 0.39
UAACAGGGGGCCACAGCAGAAGCGUUCACGUCGCAGCCCUUGUCAGAUUCUGGUGAAUCUGCGAAUUCUGCGGUAUAUCUC | 0.32
UAACAGGGGGCCACAGCAGAAGCGUUCACGUCGCAGCCCCAGUCAGAUUCUGGUGAAUCUGAGAAUUCUGCUGUAUAUCUC | 0.34
UAACAGGGGGCCACAGCAGAAGCGUUCACGUCGCAGCCCCAGUCAGAUUCUGGUGAAUCUGUGAAUUCUGCUGUAUAUCUC | 0.16
UAACAGGGGGCCACAGCAGAAGCGUUCACGUCGCAGCCCCAGUCAGAUUCUGGUGAAUCUGCGAAUUCUGCUGUAUAUCUA | 0.22
UAACAGGGGGCCACAGCAGAAGCGUUCACGUCGCAGCCCCAGUCAGAUUCUGGUGAAUCUGCGAAUUCUGCUGUAUAUCUU | 0.25
UAACAGGGGGCCACAGCAGAAGCGUUCACGUCGCAGCCCCAGUCAGAUUCUGGUGAAUCUGCGAAUUCUGCUGUAUAUCUG | 0.25
UAACAGGGGGCCACAGCAGAAGCGUUCACGUCGCAGCCCCAGUCAGAUUCUGGUGAAUCUGCGAAUUCUGCUGUGUAUCUC | 0.27
UAACAGGGGGCCACAGCAGAAGCGUUCACGUCGCAGCCCCAGUCAGAUUCUGGUGAAUCUGCGAAUUCUGCUGUCUAUCUC | 0.31
UAACAGGGGGCCACAGCAGAAGCGUUCACGUCGCAGCCCCAGUCAGAUUCUGGUGAAUCUGCGAAUUCUGCUGUUUAUCUC | 0.4
UAACAGGGGGCCACAGCAGAAGCGUUCACGUCGCAGCCCCAGUCAUAUUCUGGUGAAUCUGCGAAUUCUGCUGUAUAUCUC | 0.29
UAACAGGGGGCCACAGCAGAAGCGUUCACGUCGCAGCCCCAGUCAAAUUCUGGUGAAUCUGCGAAUUCUGCUGUAUAUCUC | 0.3

Variant | self-cleavage
UAACAGGGGGCCACAGCAGAAGCGUUCACGUCGCAGCCCCAGUAAGAUUCUGGUGAAUCUGCGAAUUCUGCUGUAUAUCUC | 0.15
UAACAGGGGGCCACAGCAGAAGCGUUCACGUCGCAGCCCCAGUUAGAUUCUGGUGAAUCUGCGAAUUCUGCUGUAUAUCUC | 0.23
UAACAGGGGGCCACAGCAGAAGCGUUCACGUCGCAGCCCCAGUCAGAUUCUGGUGAAUCUUCGAAUUCUGCUGUAUAUCUC | 0.24
UAACAGGGGGCCACAGCAGAAGCGUUCACGUCGCAGCCCUUGUCAGAUUCUGGUGAAUCUGCGAAUUCUGCUGUAUACCUC | 0.56
UAACAGGGGGCCACAGCAGAAGCGUUCACGUCGCAGCCCUUGUCAGAUUCUGGUGAAUCUGCGAAUUCUGCUGUAUAACUC | 0.75
UAACAGGGGGCCACAGCAGAAGCGUUCACGUCGCAGCCCCAGUCAGAUUCUGAUGAAUCUGCGAAUUCUGCUGUAUAUCUC | 0.38
UAACAGGGGGCCACAGCAGAAGCGUUCACGUCGCAGCCCCAGUCAGAUUCUGCUGAAUCUGCGAAUUCUGCUGUAUAUCUC | 0.23
UAACAGGGGGCCACAGCAGAAGCGUUCACGUCGCAGCCCCAGUCAGAUUCUGGUGAAUCUGCCAAUUCUGCUGUAUAUCUC | 0.26
UAACAGGGGGCCACAGCAGAAGCGUUCACGUCGCAGCCCCAGUCAGAUUCUGGUGAAUCUGCAAAUUCUGCUGUAUAUCUC | 0.35
UAACAGGGGGCCACAGCAGAAGCGUUCACGUCGCAGCCCCAGUCAGAUUCUGGUGAAUCUGCUAAUUCUGCUGUAUAUCUC | 0.3
UAACAGGGGGCCACAGCAGAAGCGUUCACGUCGCAGCCCCAGUCAGAUUCUGGUGAAUCUGCGAAUUCUGCUGUAUAUCUC | 0.3
UAACAGGGGGCCACAGCAGAAGCGUUCACGUCGCAGCCCCAGUCAGAUUCUCGUGAAUCUGCGAAUUCUGCUGUAUAUCUC | 0.67
UAACAGGGGGCCACAGCAGAAGCGUUCACGUCGCAGCCCCAGUCAGAUUCUUGUGAAUCUGCGAAUUCUGCUGUAUAUCUC | 0.21
UAACAGGGGGCCACAGCAGAAGCGUUCACGUCGCAGCCCCAGUCAGAUUCUAGUGAAUCUGCGAAUUCUGCUGUAUAUCUC | 0.19
UAACAGGGGGCCACAGCAGAAGCGUUCACGUCGCAGCCCCAGUCAGAUUCUGGUGAAUCUGCGAAUUCUGCUGUAUUUCUC | 0.31
UAACAGGGGGCCACAGCAGAAGCGUUCACGUCGCAGCCCCAGUCAGAUUCUGGUGAAUCUGCGAAUUCUGCUGUAUCUCUC | 0.15
UAACAGGGGGCCACAGCAGAAGCGUUCACGUCGCAGCCCCAGUCAGAUUCUGGUGAAUCUGCGAAUUCUGCUGUAUGUCUC | 0.31
UAACAGGGGGCCACAGCAGAAGCGUUCACGUCGCAGCCCCAGUCGGAUUCUGGUGAAUCUGCGAAUUCUGCUGUAUAUCUC | 0.24
UAACAGGGGGCCACAGCAGAAGCGUUCACGUCGCAGCCCCAGUCUGAUUCUGGUGAAUCUGCGAAUUCUGCUGUAUAUCUC | 0.2
UAACAGGGGGCCACAGCAGAAGCGUUCACGUCGCAGCCCCAGUCCGAUUCUGGUGAAUCUGCGAAUUCUGCUGUAUAUCUC | 0.18
UAACAGGGGGCCACAGCAGAAGCGUUCACGUCGCAGCCCCAGUCAGAUUCUGGUGAAUAUGCGAAUUCUGCUGUAUAUCUC | 0.13
UAACAGGGGGCCACAGCAGAAGCGUUCACGUCGCAGCCCCAGUCAGAUUCUGGUGAAUUUGCGAAUUCUGCUGUAUAUCUC | 0.06

From the RNAGym collection of RNA variant scans (doi:10.1093/nar/gkz1192)
